The text below walks through data of publication PMC12377726 (Proceedings of the National Academy of Sciences of the …, 2025).

Numbering of substitutions follows the chain as printed.

First the molecules themselves.
B1: G001_gp1_V06_VRC01c_2021-0007 (antibody, V domains shown)
VH: QVQLVQSGAEVKKPGASVKVSCKASGYTFTGSYMHWVRQAPGQGLEWMGWINPNSGGTNYAQKFQGWVTMTRDTSISTAYMELSRLRSDDTAVYYCATASSGSYYWYFDLWGRGTLVTVSS
VL: EIVMTQSPATLSVSPGERATLSCRASQSVSSNLAWYQQKPGQAPRLLIYGASTRATGIPARFSGSGSGTEFTLTISSLQSEDFAVYYCQQYETFGQGTKVEIK
B2: G001_gp1_V06_VRC01c_81 (antibody, V domains shown)
VH: not shown
VL: B1 VL with S12C, E92N, T93N
B3: G001_gp1_V06_VRC01c_82 (antibody, V domains shown)
VH: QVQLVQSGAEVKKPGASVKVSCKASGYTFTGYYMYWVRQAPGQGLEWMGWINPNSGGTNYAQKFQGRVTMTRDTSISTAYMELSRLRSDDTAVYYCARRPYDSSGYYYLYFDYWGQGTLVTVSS
VL: B1 VL with Q96G
B4: G001_gp1_V06_VRC01c_2021-0022 (antibody, V domains shown)
VH: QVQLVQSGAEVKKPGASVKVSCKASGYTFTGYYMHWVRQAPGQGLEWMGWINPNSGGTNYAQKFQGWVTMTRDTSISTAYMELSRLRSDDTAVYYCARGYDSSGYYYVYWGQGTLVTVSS
VL: B1 VL with E92N, T93N, K99R, V100L
B5: G001_gp1_V06_VRC01c_2021-0014 (antibody, V domains shown)
VH: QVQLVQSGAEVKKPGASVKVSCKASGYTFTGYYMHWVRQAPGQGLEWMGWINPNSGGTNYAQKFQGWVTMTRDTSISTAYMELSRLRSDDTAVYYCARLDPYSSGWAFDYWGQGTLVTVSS
VL: B1 VL with E92G
B6: G001_gp1_V06_VRC01c_2021-0012 (antibody, V domains shown)
VH: not shown
VL: B1 VL with V29F, P40S, E92H, Q96P, E101D
B7: G001_LD_V05_VRC01c_17 (antibody, V domains shown)
VH: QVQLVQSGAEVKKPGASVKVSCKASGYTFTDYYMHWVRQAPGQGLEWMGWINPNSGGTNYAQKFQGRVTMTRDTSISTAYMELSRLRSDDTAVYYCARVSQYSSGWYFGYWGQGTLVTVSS
VL: DIQMTQSPSSLSASVGDRVTITCQASQDISNYLNWYQQKPGKAPKLLIYDASNLETGVPSRFSGSGSGTDFTFTISSLQPEDIATYYCQQYEFFGGGTKVEIK
B8: G001_LD_V05_VRC01c_20 (antibody, V domains shown)
VH: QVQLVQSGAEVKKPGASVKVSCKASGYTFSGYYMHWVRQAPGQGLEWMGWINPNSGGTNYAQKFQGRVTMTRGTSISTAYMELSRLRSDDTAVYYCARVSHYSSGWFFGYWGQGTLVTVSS
VL: B7 VL with E92D
B9: G001_LD_V05_VRC01c_30 (antibody, V domains shown)
VH: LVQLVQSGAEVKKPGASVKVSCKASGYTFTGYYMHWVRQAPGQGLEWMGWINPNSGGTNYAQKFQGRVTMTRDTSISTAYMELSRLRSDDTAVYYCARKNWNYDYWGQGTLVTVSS
VL: B7 VL with A13T, S30T, E92D, F93N
B10: G001_gp1_V06_VRC01c_2021-0004 (antibody, V domains shown)
VH: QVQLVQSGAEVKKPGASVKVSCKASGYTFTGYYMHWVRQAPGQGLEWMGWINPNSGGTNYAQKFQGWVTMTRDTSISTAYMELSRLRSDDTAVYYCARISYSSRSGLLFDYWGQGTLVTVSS
VL: B7 VL with E92N, F93T
B11: G001_LD_V05_VRC01c_29 (antibody, V domains shown)
VH: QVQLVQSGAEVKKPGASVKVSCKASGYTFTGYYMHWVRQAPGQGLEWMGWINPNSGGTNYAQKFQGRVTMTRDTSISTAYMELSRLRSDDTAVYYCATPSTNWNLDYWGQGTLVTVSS
VL: B7 VL with T74S, E81D, F93G, G96P, E101D
B12: G001_gp1_V06_VRC01c_2021-0006 (antibody, V domains shown)
VH: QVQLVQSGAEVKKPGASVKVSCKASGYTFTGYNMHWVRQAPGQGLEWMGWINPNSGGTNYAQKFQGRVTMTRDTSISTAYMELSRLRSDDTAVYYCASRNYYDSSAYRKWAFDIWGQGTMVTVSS
VL: B7 VL with S30N, F93T, G96Q, K99R, V100L
B13: G001_gp1_V06_VRC01c_2021-0021 (antibody, V domains shown)
VH: QVQLVQSGAEVKKPGASVKVSCKASGYTFTGDYMHWVRQAPGQGLEWMGWINPNSGGTNYAQKFEGWVTMTRDTSISTAYMELSRLRSDDTAVYYCARTPYSSSWLFNYWGQGTLVTVSS
VL: B7 VL with Y32F, D70N, E92D, F93L, G96P, E101D
B14: G001_gp1_V06_VRC01c_83 (antibody, V domains shown)
VH: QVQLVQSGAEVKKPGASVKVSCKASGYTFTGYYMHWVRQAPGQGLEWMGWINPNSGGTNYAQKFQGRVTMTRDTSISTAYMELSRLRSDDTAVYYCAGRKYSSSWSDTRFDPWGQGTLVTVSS
VL: B7 VL with S30N, F93A, G96Q
B15: G001_LD_V05_VRC01c_21 (antibody, V domains shown)
VH: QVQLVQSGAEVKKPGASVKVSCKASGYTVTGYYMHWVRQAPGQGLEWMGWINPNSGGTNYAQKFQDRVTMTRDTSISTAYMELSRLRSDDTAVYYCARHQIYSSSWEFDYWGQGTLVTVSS
VL: B7 VL with S77I, I83T, E92D, F93T, G96P, E101D
B16: G001_gp1_V06_VRC01c_2021-0020 (antibody, V domains shown)
VH: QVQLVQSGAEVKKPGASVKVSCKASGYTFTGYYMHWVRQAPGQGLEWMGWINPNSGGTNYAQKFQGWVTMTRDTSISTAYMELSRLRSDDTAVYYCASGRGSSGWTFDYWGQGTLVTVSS
VL: B7 VL with Y32F, Y36F, E92D, F93N, G96P, E101D
B17: G001_gp1_V06_VRC01c_2021-0008 (antibody, V domains shown)
VH: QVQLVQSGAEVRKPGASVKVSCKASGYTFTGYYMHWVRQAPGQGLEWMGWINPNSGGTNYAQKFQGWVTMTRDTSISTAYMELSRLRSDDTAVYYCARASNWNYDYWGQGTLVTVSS
VL: B7 VL with E55Q, E92D
B18: G001_gp1_V06_VRC01c_2021-0027 (antibody, V domains shown)
VH: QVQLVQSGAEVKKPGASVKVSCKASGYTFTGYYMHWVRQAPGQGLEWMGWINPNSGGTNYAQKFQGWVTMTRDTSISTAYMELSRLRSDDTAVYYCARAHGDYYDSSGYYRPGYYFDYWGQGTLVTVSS
VL: QSVLTQPPSVSGAPGQRVTISCTGSSSNIGAGYDVHWYQQLPGTAPKLLIYGNSNRPSGVPDRFSGSKSGTSASLAITGLQAEDEADYYCQSYEVFGGGTKLTVL
B19: G001_gp1_V06_VRC01c_2021-0003 (antibody, V domains shown)
VH: QVQLVQSGAEVKKPGASVKVSCKASGYTFTGYYIHWVRQAPGQGLEWMGWINPNSGGTNYAQKFQGWVTMTRDTSISTAYMELRRLRSDDTAVYYCARVKDYYDSIGGWYFDLWGRGTLVTVSS
VL: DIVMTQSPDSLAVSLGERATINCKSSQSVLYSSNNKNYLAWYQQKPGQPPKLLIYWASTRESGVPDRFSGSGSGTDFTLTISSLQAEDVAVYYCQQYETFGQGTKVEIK
B20: G001_gp1_V06_VRC01c_2021-0011 (antibody, V domains shown)
VH: QVQLVQSGAEVKKPGASVKVSCKASGYTFTGYYLHWVRQAPGQGLEWMGWINPNSGGTNYAQKFQGWVTMTRDTSISTAYMELSRLRSDDTAVYYCAVKDLDTMVRGGAFVFWGQGTMVTVSS
VL: DIQLTQSPSFLSASVGDRVTITCRASQGISSYLAWYQQKPGKAPKLLIYAASTLQSGVPSRFSGSGSGTEFTLTISSLQPEDFATYYCQQLNSFGGGTKVEIK
B21: G001_gp1_V06_VRC01c_76 (antibody, V domains shown)
VH: QVHLVQSGAEVKKPGASVKVSCKASEYTFSDYYMHWVRQAPGQGLEWMGWINPNSGGTNYAQKFQGRVTMTRDTSISTAYMELSRLRSDDTAVYYCATRGTGRYSYGSGTFYDYWGQGTLVTVSS
VL: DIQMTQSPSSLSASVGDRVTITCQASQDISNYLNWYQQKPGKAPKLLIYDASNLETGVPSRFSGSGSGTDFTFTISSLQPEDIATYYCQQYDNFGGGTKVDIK
B22: G001_gp1_V06_VRC01c_2021-0023 (antibody, V domains shown)
VH: QVQLVQSGAEVKKPGASVKVSCKASGYTFTDYYIHWVRQAPGQGLEWMGWINPNSGGTNYAQKFQDWVTMTRDTSITTAYMELSRLRSDDTAVYYCARGVRYSSSWYFGYWGQGTLVTVSS
VL: QSALTQPASVSGSPGQSITISCTGTSSDVGGYNYVSWYQQHPGKAPKLMIYDVSNRPSGVSNRFSGSKSGNTASLTISGLQTEDEADYYCSSYEVFGTGTKVTVL
B23: G001_gp1_V06_VRC01c_79 (antibody, V domains shown)
VH: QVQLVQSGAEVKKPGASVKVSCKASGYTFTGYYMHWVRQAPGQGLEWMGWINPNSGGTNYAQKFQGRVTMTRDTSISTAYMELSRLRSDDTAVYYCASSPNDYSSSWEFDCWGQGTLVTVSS
VL: EIVLTQSPGTLSLSPGERATLSCRASQSSSHLAWYQQKHGQAPRLLIYGASSRATGIPDRFSGSGSGTDFTLTISRLEPEDFAVYHCQQYETFGQGTKVEIK
B24: G001_gp1_V06_VRC01c_2021-0010 (antibody, V domains shown)
VH: QVQLVQSGAEVKKPGASVKVSCKASGYTFTGYYMQWMRQAPGQGLEWMGWINPNSGGTNYAQKFQGWVTMTRDTSISTVYMELSRLRSDDTAVYYCARGFTNWNLDYWGQGTLVTVSS
VL: EIVLTQSPGTLSLSPGERATLSCRASQSVSSSYLAWYQQKPGQAPRLLIYGASSRATGIPDRFSGSGSGTDFTLTISRLEPEDFAMYYCQQYETFGQGTKVEIK
B25: G001_gp1_V06_VRC01c_2021-0026 (antibody, V domains shown)
VH: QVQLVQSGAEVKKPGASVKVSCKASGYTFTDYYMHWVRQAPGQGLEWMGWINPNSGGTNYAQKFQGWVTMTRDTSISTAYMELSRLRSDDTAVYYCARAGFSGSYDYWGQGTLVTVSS
VL: B24 VL with S26C, M86V, V101L
B26: G001_gp1_V06_VRC01c_2021-0019 (antibody, V domains shown)
VH: QVQLVQSGAEVKKPGASVKVSCKASGYTFTGYYMHWVRQAPGQGLEWMGWINPNSGGTNYAQKFQDWVTMTRDTSISTAYMELRRLRSDDTAVYYCARPSYRSGWDMWYWGQGTLVTVSS
VL: B24 VL with M86V, T94G, Q97P, E102D
B27: G001_gp1_V06_VRC01c_2021-0017 (antibody, V domains shown)
VH: not shown
VL: B24 VL with M86V, T94F, Q97P, E102D
B28: G001_gp1_V06_VRC01c_2021-0028 (antibody, V domains shown)
VH: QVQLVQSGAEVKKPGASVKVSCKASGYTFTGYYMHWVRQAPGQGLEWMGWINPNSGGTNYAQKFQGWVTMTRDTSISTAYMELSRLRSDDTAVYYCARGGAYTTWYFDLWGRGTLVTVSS
VL: B24 VL with S31G, A52S, M86V
B29: G001_gp1_V06_VRC01c_2021-0016 (antibody, V domains shown)
VH: QVQLVQSGAEVKKPGASVTVSCKASGYTFTGYYMHWVRQAPGQGLEWMGWINPTSGGTNYGQKFQGRVTMTRDTSISTAYMELSRLRSDDTAVYYCAITTVTSTWAFDIWGQGTMVTVSS
VL: B24 VL with S31N, S32N, K40T, M86V
B30: G001_gp1_V06_VRC01c_2021-0005 (antibody, V domains shown)
VH: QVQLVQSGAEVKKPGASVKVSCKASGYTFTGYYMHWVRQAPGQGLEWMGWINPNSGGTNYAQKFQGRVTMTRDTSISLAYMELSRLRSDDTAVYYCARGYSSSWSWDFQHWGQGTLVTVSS
VL: DIQMTQSPSTLSASVGDRVTITCRASQSISSWLAWYQQKPGKAPKLLIYKASSLESGVPSRFSGSGSGTEFTLTISSLQPDDFATYYCQQYETFGQGTKVEIK
B31: G001_gp1_V06_VRC01c_2021-0030 (antibody, V domains shown)
VH: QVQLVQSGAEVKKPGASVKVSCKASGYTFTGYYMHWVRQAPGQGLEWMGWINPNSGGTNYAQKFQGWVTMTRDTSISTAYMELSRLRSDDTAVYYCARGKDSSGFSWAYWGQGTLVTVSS
VL: B30 VL with E92A
B32: G001_gp1_V06_VRC01c_2021-0015 (antibody, V domains shown)
VH: not shown
VL: B30 VL with Y91W
B33: G001_gp1_V06_VRC01c_2021-0018 (antibody, V domains shown)
VH: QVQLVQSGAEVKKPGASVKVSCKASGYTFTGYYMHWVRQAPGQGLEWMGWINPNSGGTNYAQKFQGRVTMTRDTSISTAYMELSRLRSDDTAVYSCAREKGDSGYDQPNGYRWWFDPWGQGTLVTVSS
VL: B30 VL

This assay has as its target eOD-GT8 (engineered outer domain germline-targeting version 8), monomer (HIV-1 gp120 engineered outer domain, …).
As for B1, the binding result is listed as “binds”.

B2: the binding result is given as “binds”. The value for B3 was “binds”; that for B4 was “binds”; that for B5 was “binds”. Turning to B6, the binding result is “binds”. As for B7, the binding result is given as “binds”. On to B8, for which the binding result is on record as “binds”. Under B9 stands “binds”; under B10, “binds”; under B11, “binds”. Under B12 stands “binds”; under B13, “binds”.

B14: the binding result was “binds”. The value for B15 was “binds”. The value for B16 was “binds”; that for B17 was “binds”. On to B18, for which the binding result is “binds”. For the molecule B19, the binding result is “binds”.

Turning to B20, the binding result was “binds”.

In the case of B21, the binding result was “binds”. The value for B22 was “binds”; that for B23 was “binds”.

In the case of B24, the binding result is “binds”. Take B25: the binding result is reported as “binds”. Under B26 stands “binds”; under B27, “binds”; under B28, “binds”. The value for B29 was “binds”. Under B30 stands “binds”. Turning to B31, the binding result is recorded as “binds”.

As for B32, the binding result is recorded as “binds”. As for B33, the binding result is “binds”.
